The values that follow come from patent US20160319287A1.

What all share (assay): cell-based or functional assay
Experiment [1] concerns the target M2^C-Trx-H6 (AceL-TerL Int^C mutant M2: S38G, N46I, N54D, L55Q) [thioredoxin: P0AA25].
Experiment [2] has as its target M1^C-Trx-H6 (AceL-TerL Int^C mutant M1: N46D, L55Q) [thioredoxin: P0AA25].
The target in experiment [3] is MBP-Int^C-TycB1 with the AceL-TerL MX1 mutant (M1^C).

No end group written: not given here. FI = 5(6)-carboxyfluorescein

Chain of MBP-Int^C-TycB1 with the AceL-TerL MX1 mutant (M1^C) (main, as listed by the source, change not shown): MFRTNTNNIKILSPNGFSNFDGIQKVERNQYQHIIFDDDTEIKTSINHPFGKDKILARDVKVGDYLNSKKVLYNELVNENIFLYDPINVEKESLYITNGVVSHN
Chain of M2^C-Trx-H6 (AceL-TerL Int^C mutant M2: S38G, N46I, N54D, L55Q) [thioredoxin: P0AA25] (P0AA25 other isoform, or with tags, fused parts or gaps S38G N46I N54D L55Q S38G N46I N54D L55Q): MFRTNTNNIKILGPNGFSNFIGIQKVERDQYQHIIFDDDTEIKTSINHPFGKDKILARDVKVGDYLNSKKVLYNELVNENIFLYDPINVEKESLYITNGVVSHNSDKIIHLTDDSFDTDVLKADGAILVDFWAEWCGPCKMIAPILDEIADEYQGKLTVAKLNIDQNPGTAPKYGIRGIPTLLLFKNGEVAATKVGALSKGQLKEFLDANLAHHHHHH
Chain of M1^C-Trx-H6 (AceL-TerL Int^C mutant M1: N46D, L55Q) [thioredoxin: P0AA25] (P0AA25 other isoform, or with tags, fused parts or gaps N46D L55Q N46D L55Q): as the sequence (P0AA25 other isoform, or with tags, fused parts or gaps S38G N46I N54D L55Q S38G N46I N54D L55Q) above, with G13S, I21D, D29N counted along it

For the molecule {FI}-KKEFECVSGDTMVETEDGKIKIEDLYKRLA [pepM3^N (FI-KKEFE-IntN with the M3 Int^N, Y3S)], the splicing rate at 37° C. against the wild-type in experiment [1] turned out to be 56 fold faster; in experiment [2], 29 fold faster.
In experiment [3], {FI}-KKEFECVYGDTMVETEDGKIKIEDLYKRLA [pepWT^N (FI-KKEFE-IntN), synthetic peptide with the Int^N of the AceL-TerL intein] returned a splicing rate at 8° C. against the M86 DnaB mutant intein of 13 fold higher, a splicing rate at 8° C. against the unevolved wild-type AceL-TerL intein of 15 fold higher and a splicing yield at 8° C. of 80 to 95%.
